Test results published in paper PMC4656083 (Chemistry & biology, 2015).

Key:
Test in all cases: cross-linking
[1] = target: AcpP (acyl carrier protein) loaded with crosslinking probe DH10 (E. coli) (UniProt P0A6A8)
[2] = target: AcpP (acyl carrier protein) loaded with crosslinking probe DH10X (E. coli) (UniProt P0A6A8)
[3] = target: AcpP (acyl carrier protein) loaded with crosslinking probe DH6 (E. coli) (UniProt P0A6A8)
[4] = target: AcpP (acyl carrier protein) loaded with crosslinking probe DH8 (E. coli) (UniProt P0A6A8)
[5] = target: T1, FabA, β-hydroxyacyl-AcpP dehydratase (wild type) (E. coli, UniProt P0A6Q3 2-172)
T1 sequence: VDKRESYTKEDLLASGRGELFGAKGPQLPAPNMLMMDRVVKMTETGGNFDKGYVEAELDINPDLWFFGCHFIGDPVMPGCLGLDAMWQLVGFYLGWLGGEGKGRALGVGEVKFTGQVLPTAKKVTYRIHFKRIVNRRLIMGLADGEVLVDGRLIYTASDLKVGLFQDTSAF

With FabA R137E (enzyme) the percent complex formation (crosslinking) [1] was less than 50%, the percent complex formation (crosslinking) [2] was less than 50% and the percent complex formation (crosslinking) [3] was less than 50%. It also gave a percent complex formation (crosslinking) [4] of less than 50%.

Molecule FabA L164A (enzyme) has a crosslinking efficiency relative to WT FabA [1] greater than 50%, a crosslinking efficiency relative to WT FabA [2] greater than 50% and a crosslinking efficiency relative to WT FabA [3] greater than 50%. It also gave a crosslinking efficiency relative to WT FabA [4] greater than 50%.

Work on FabA F171A (enzyme) yielded a crosslinking efficiency relative to FabA WT [1] of 50% and a crosslinking efficiency relative to FabA WT [2] of 50%.

FabA F92A (enzyme) showed a crosslinking efficiency relative to WT FabA [1] greater than 50%, a crosslinking efficiency relative to WT FabA [2] greater than 50% and a crosslinking efficiency relative to WT FabA [3] greater than 50%. For the same molecule, the crosslinking efficiency relative to WT FabA [4] was greater than 50%.

FabA L94A (enzyme) was tested, and the crosslinking efficiency relative to WT FabA [1] was greater than 50%, the crosslinking efficiency relative to WT FabA [2] was greater than 50% and the crosslinking efficiency relative to WT FabA [3] was greater than 50%. It also gave a crosslinking efficiency relative to WT FabA [4] greater than 50%.

FabA F165A (enzyme) showed a crosslinking efficiency relative to FabA WT [1] of 50% and a crosslinking efficiency relative to FabA WT [2] of 50%.

B1: AcpP (acyl carrier protein) loaded with crosslinking probe DH10 (natural protein, E. coli)
chain: STIEERVKKIIGEQLGVKQEEVTNNASFVEDLGADSLDTVELVMALEEEFDTEIPDEEAEKITTVQAAIDYINGHQA
modifications: S36 carries the phosphopantetheine analogue of probe DH10 (sulfonyl-3-alkyne warhead, mimics a C10 acyl chain)
B1: binds [5].
